The results in this text go back to PMC10657434, “Architecture of the baculovirus nucleocapsid revealed by cryo-EM” (Nature Communications, 2023).

The chains are these.
B1: major capsid protein VP39 (natural protein)
chain: MALVPVGMAPRQMRVNRCIFASIVSFDACITYKSPCSPDAYHDDGWFICNNHLIKRFKMSKMVLPIFDEDDNQFKMTIARHLVGNKERGIKRILIPSATNYQDVFNLNSMMQAEQLIFHLIYNNENAVNTICDNLKYTEGFTSNTQRVIHSVYATTKSILDTTNPNTFCSRVSRDELRFFDVTNARALRGGAGDQLFNNYSGFLQNLIRRAVAPEYLQIDTEELRFRNCATCIIDETGLVASVPDGPELYNPIRSSDIMRSQPNRLQIRNVLKFEGDTRELDRTLSGYEEYPTYVPLFLGYQIINSENNFLRNDFIPRANPNATLGGGAVAGPAPGVAGEAGGGIAV
notes: major capsid protein VP39 of Autographa californica multiple nucleopolyhedrovirus (AcMNPV), as present in the native nucleocapsid; regions described in the model run from Arg14 to Asn320; Native virion protein; forms disulfide-linked dimers arranged as a 14-start helical cylinder; also called VP39A; VP39B; source: AcMNPV ODV nucleocapsids from occlusion bodies of infected Spodoptera exigua …
B2: AC104 (VP80) (natural protein)
chain: MNDSNSLLITRLAAQILSRNMQTVDVIVDDKTLSLEEKIDTLTSMVLAVNSPPQSPPRVTSSDLAASIIKNNSKMVGNDFEMRYNVLRMAVVFVKHYPKYYNETTAGLVAEIESNLLQYQNYVNQGNYQNIEGYDSLLNKAEECYVKIDRLFKESIKKIMDDTEAFEREQEAERLRAEQTAANALLERRAQTSADDVVNRADANIPTAFSDPLPGPSAPRYMYESSESDTYMETARRTAEHYTDQDKDYNAAYTADEYNSLVKTVLLRLIEKALATLKNRLHITTIDQLKKFRDYLNSDADAGEFQIFLNQEDCVILKNLSNLASKFFNVRCVADTLEVMLEALRNNIELVQPESDAVRRIVIKMTQEIKDSSTPLYNIAMYKSDYDAIKNKNIKTLFDLYNDRLPINFLDTSATSPVRKTSGKRSAEDDLLPTRSSKRANRPEINVISSEDEQEDDDVEDVDYEKESKRRKLEDEDFLKLKALEFSKDIVNEKLQKIIVVTDGMKRLYEYCNCKNSLETLPSAANYGSLLKRLNLYNLDHIEMNVNFYELLFPLTLYNDNDNSDKTLSHQLVNYIFLASNYFQNCAKNFNYMRETFNVFGPFKQIDFMVMFVIKFNFLCDMRNFAKLIDELVPNKQPNMRIHSVLVMRDKIVKLAFSNLQFQTFSKKDKSRNTKHLQRLIMLMNANYNVI
notes: AC104 (VP80) of AcMNPV, as present in the native nucleocapsid; only Ile490-Thr664 and Asn673-Asn685 (AC104-1, AC104-2) and Asp463-Ile691 (AC104-3) are resolved and modelled; also called AC104-1; AC104-2; source: AcMNPV ODV nucleocapsids from occlusion bodies of infected Spodoptera exigua larvae; alkaline lysis, centrifugation
B3: AC101 (BV/ODV-C42) (natural protein)
chain: MSAIALYLEINKLRLKIDEPMQLAIWPQLFPLLCDEHQSVQLNTDVLINFMMHVARKSQNTILNNNAAIASQYAAGNADVVAAPASAQPTPRPVINLFARANAAAPAQPSEELINMRRYRNAARKLIHHYSLNSTSSTEYKISDVVMTMIFLLRSEKYHSLFKLLETTFDDYTCRPQMTQVQTDTLLDAVRSLLEMPSTTIDLTTVDIMRSSFARCFNSPIMRYAKIVLLQNVALQRDKRTTLEELLIERGEKIQMLQPQQYINSGTEIPFCDDAEFLNRLLKHIDPYPLSRMYYNAANTMFYTTMENYAVSNCKFNIEDYNNIFKVMENIRKHSNKNSNDQDELNIYLGVQSSNAKRKKY
notes: AC101 (BV/ODV-C42) of AcMNPV, as present in the native nucleocapsid; ~110 N-terminal and ~30 C-terminal residues are not resolved; modelled parts include Glu112-Asn218, Ser219-Thr241 and Leu243-His334; also called BV/ODV-42; AC101-1; source: AcMNPV ODV nucleocapsids from occlusion bodies of infected Spodoptera exigua larvae; alkaline lysis, centrifugation
B4: polyhedrin (natural protein)
chain: MPDYSYRPTIGRTYVYDNKYYKNLGAVIKNAKRKKHFAEHEIEEATLDPLDNYLVAEDPFLGPGKNQKLTLFKEIRNVKPDTMKLVVGWKGKEFYRETWTRFMEDSFPIVNDQEVMDVFLVVNMRPTRPNRCYKFLAQHALRCDPDYVPHDVIRIVEPSWVGSNNEYRISLAKKGGGCPIMNLHSEYTNSFEQFIDRVIWENFYKPIVYIGTDSAEEEEILLEVSLVFKVKEFAPDAPLFTGPAY
notes: polyhedrin of AcMNPV, left in the nucleocapsid sample after alkaline lysis of occlusion bodies; also called polyhedrins; source: present in the buffer of the AcMNPV nucleocapsid preparation (nucleocapsids not isolated by gradient centrifugation)

For the data set “AC104 (VP80)”, the target named is B2. In words: cryo-EM structure; head and base of native AcMNPV ODV nucleocapsids; local refinement 4.3 Å (elements common to both ends), 4.8 Å (base with AC98), 4.9 Å (plug); AlphaFold2 models docked into density and refined; partners co-purified as the native nucleocapsid. The settings on record: both partners purified.
Data set [1] concerns the molecule itself. In words: cryo-EM structure; helical cylinder of native AcMNPV ODV nucleocapsids; helical reconstruction 3.9 Å, local refinement 3.2 Å; VP39 model built de novo; partners co-purified as the native nucleocapsid.
Data set [2] concerns the molecule itself. As to the kind of experiment: cryo-EM structure; head and base of native AcMNPV ODV nucleocapsids; local refinement 4.3 Å (elements common to both ends), 4.8 Å (base with AC98), 4.9 Å (plug); AlphaFold2 models docked into density and refined; partners co-purified as the native nucleocapsid.
Data set [3] deals with the molecule itself. As to the kind of experiment: cross-linking; purified AcMNPV nucleocapsid, 2 mM BS3 on ice 2 h, stopped with 50 mM Tris-HCl pH 7.5; mass spectrometry, pLink2.

In the case of B1, the binding result (with AC104 (VP80); in data set [1]) was “binds” throughout. Take B2: the binding result in data set [2] is given as “binds”. Still for that read-out and setting: in the case of B3 it was “binds”. B4: the binding result in data set [3] is given as “binds”.
